Target: SARS-CoV-2 spike receptor-binding domain (RBD), Wuhan-Hu-1, His-tagged (SARS-CoV-2 (Wuhan-Hu-1), UniProt P0DTC2 319-541)
Test: BLI

B1: NCI-CoV-1B5 VHH-hFc fusion protein (Fc fusion)
chain: DVQLVESGGGSVQAGGSLRLSCTGSRYTYSTYCMGWFRQAPGKEEEAVAIINSGGGEPYYGDSVKGRFTISQDRAKNTVYLQMDGLQPDDTAIYYCVAADSHNSRCYLGRSYVNYWGQGTQVTVSS
Kd: 0.1 nM

From publication PMC9170159 (2022)
